B1: synthetic monovalent form of natalizumab where 1 Fab arm was specific for VLA-4 and the other for CD4 (bispecific antibody, part only; not given: anti-CD4 arm and constant regions, V domains shown, not shown: another chain or arm of the molecule; a dimerising Fc or GST)
VH: QVQLVQSGAEVKKPGASVKVSCKASGFNIKDTYIHWVRQAPGQRLEWMGRIDPANGYTKYDPKFQGRVTITADTSASTAYMELSSLRSEDTAVYYCAREGYYGNYGVYAMDYWGQGTLVTVSS
VL: DIQMTQSPSSLSASVGDRVTITCKTSQDINKYMAWYQQTPGKAPRLLIHYTSALQPGIPSRFSGSGSGRDYTFTISSLQPEDIATYYCLQYDNLWTFGQGTKVEIK
B2: Natalizumab (antibody, V domains shown)
VH: B1 VH
VL: B1 VL
notes: also called divalent natalizumab; divalent form

Experiments:
[1] = molecular target: Very late antigen-4 (VLA-4), alpha4beta1 integrin, on the surface of human reticulocytes and mononuclear leukocytes (human) (UniProt P13612); test: cell-based or functional assay
[2] = molecular target: Very late antigen-4 (VLA-4), alpha4beta1 integrin, on the surface of human reticulocytes and mononuclear leukocytes (human) (UniProt P13612); test: flow cytometry saturation binding on isolated RBCs from 5 SCD donors
[3] = molecular target: Very late antigen-4 (VLA-4), alpha4beta1 integrin, on the surface of human reticulocytes and mononuclear leukocytes (human) (UniProt P13612); test: flow cytometry saturation binding on isolated RBCs, individual SCD donors
[4] = molecular target: Very late antigen-4 (VLA-4), alpha4beta1 integrin, on the surface of human reticulocytes and mononuclear leukocytes (human) (UniProt P13612); test: flow cytometry saturation binding on isolated RBCs (reticulocytes) from 5 SCD donors, one-site binding analysis
[5] = molecular target: T1, Very late antigen-4 (VLA-4), alpha4beta1 integrin, on the surface of human reticulocytes and mononuclear … (human, UniProt P13612 34-1032; P05556 21-798); test: cell-based or functional assay
[6] = molecular target: T1, Very late antigen-4 (VLA-4), …; test: flow cytometry saturation binding on isolated RBCs (reticulocytes) from 5 SCD donors, one-site binding analysis
Protocol: Flow cytometry was carried out using the BD FACS Canto II and data analysis was performed with the FACS Diva software. Data for leukocytes was acquired by gating based on forward and side scatter properties and CD45 staining of mononuclear cells. Natalizumab and IgG4 staining of the CD45 positive mononuclear cells were then determined. For erythrocytes, cells were gated for CD235a positive staining and examined for thiazole orange stained reticulocytes. Reticulocyte staining for VLA-4 with either natalizumab or an anti CD29 antibody was then determined and compared to IgG4 or isotype matched control antibody.
Fab arm exchange with endogenous IgG4 in humans, resulting in the production of antibodies that are potentially bispecific (Labrijn AF et al. Nat Biotechnol. 27(8):767-71 2009). This phenomenon has been reported for natalizumab as well, leading to the formation of a monovalent form of the antibody, with only one Fab arm specific for the α-subunit of VLA-4 (Rispens T et al. Anal Biochem. 411(2):271-6 2011; Shapiro RI et al. J Pharm Biomed Anal. 55(1):168-75 2011). To assess the impact of half-antibody exchange of natalizumab on saturation and adhesion of sickle cells, a synthetic monovalent form of natalizumab was used where 1 Fab arm was specific for VLA-4 and the other for CD4. […]

Binder	IC50 for inhibition of adhesion of reticulocytes in isolated RBC to VCAM-1 [1] [µg/mL]	fold change of adhesion-inhibition IC50 against the divalent form [1] [fold]	potency in blocking reticulocyte adhesion to VCAM-1 against divalent natalizumab (from IC50) [1] [fold]	fold change of EC50 against the divalent form [2] [fold]	fold change of EC50 against the divalent form [3] [fold]	EC50 [4] [µg/mL]	IC50 for blocking adhesion of whole blood leukocytes to VCAM-1 under flow, adult SCD blood [5] [µg/mL]	IC50 for blocking adhesion of whole blood reticulocytes to VCAM-1 under flow, adult SCD blood [5] [µg/mL]	IC50 for inhibition of adhesion of reticulocytes in isolated RBC to VCAM-1 [5] [µg/mL]	EC50 [6] [µg/mL]
B1	0.37	19	10	7	1.7 to 12	0.89	–	–	–	–
B2	–	–	–	–	–	–	0.05	0.02	0.02	0.14

Reference: US20170216434A1 (WAYNE STATE UNIVERSITY, published 2017)
